Data as given in the supplement of paper PMC9170038.

Tested on: MS2 coat protein
Assay: apparent KD of MS2 coat protein; higher = weaker reporter binding
Settings: Eterna round: R107
In short: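 Each design's apparent KD comes from the median of binding-curve fits to its normalised clusters. Those clusters carried RNA switches transcribed on-chip from Illumina sequencing clusters. SNAP-549-labelled MS2 coat protein was titrated onto them in twofold steps (0.7 or 1.5 nM to 3 µM; per step 0.8–1.5 h down to 10–20 min). Conditions were 100 mM Tris-HCl pH 7.5, 80 mM KCl, 4 mM MgCl2, without or with constant ligand.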

[1] = input ligand: theophylline 20 uM
[2] = input ligand: theophylline 2 mM
[3] = input ligand: tryptophan 2.4 mM

Sequence	apparent KD of MS2 coat protein (input ligand: arginine 13.2 mM) [nM]	apparent KD of MS2 coat protein [1] [nM]	apparent KD of MS2 coat protein [2] [nM]	apparent KD of MS2 coat protein (input ligand: none) [nM]	apparent KD of MS2 coat protein [3] [nM]
GCGUUGGCCACGGCCGCCACUCAGGUACCGCGCGUAGUGAACUUACAUGAGGAUCACCCAUGUCUGAGGACCGGGUGGCCGCCAC [theeternabot_sameState_MS2_Trp_B_27]	31.7	70.3	46.1	–	–
GCUACAUGAGGAUCACCCAUGUGUACUGAAGGAGCGGCGGAAACGCCAGGUAGGUCGCAGUAUGUGGCUCUGGGCACGAGAAAGC [SSAA NP+V+V2 #2]	36.6	28.3	72.9	25.3	34.3
GCUAGGUCAUCGGCCGCCACUAACGACGGUUCCAACAUGAGGAUCACCCAUGUGCCACAUGCGCAUAGGACCGGGAUGACCUAGC [SSTB NP+V+V2 #5]	31.1	51.2	42.7	–	–
GCUAGUGGCAGAAGGAGCGGCAUACAUGCAAGUGACAUGAGGAUCACCCAUGUAAGGGAAUGCCAGGUAGGUCGCUGCCACUAGC [EAB NP+V+V2 #2 +-Same Structure]	36.2	89.6	89.2	61.5	64.2
GCUGCCGUCGGUGAAAACUCCCAUGCAGAUACCAGCGCAUUCCGCCGCCCUUGGCAGCUGCAUACAUGAGGAUCACCCAUGUGUU [theeternabot_exclusion_MS2_Theo_A_48]	41.4	161	–	–	77.3
GGACUAACCUGAAGGAGCGACACGCAGAAACUGCAAAUUCCUCCACACGAGGAUCACCCGUGUCAGGUAGGUCGCAGGUUAGUCG [ArgBX 28]	19	25.7	21.6	20.2	19.2
GGACUAACCUGAAGGAGCGGCACGCAGAAACUGCAAAUUCCUCCACACGAGGAUCACCCGUGUCAGGUAGGUCGCAGGUUAGUCG [ArgBX 28]	18	23.3	22.9	17.1	20.3
GGAUAGGACACGGCCGCCACUAUCUAGGAUACUAGCAACAUUUGGGUACUUGAGGAUCACCCAAGUAGGACCGGGUGUCCUAUCG	82.7	226	253	170	307
GGAUAGGACAGAAGGAGCGACAUGAGGAUCACCCAUGUCUACUACGUCGAAAGACGCUCAUGUCAGGUAGGUCGCUGUCCUAUCG [#28 Exclusion - Arginine B]	70.9	263	458	241	250
GGAUGAAACUGAAGGAGCGAGAUCACAAGAAUGGGUCAAACAUGAGGAUCACCCAUGUAAUCUCAGGUAGGUCGCAGUGUCCCUU [Exclusion Arginine B GF 11]	40.1	80.5	55.1	40.4	46.2
GGCACAUAGUCGGCCGCCACUAGAUUUUAGUGGAAUAACAUGAGGAUCACCCAUGUAUUUGGGACUAGGACCGGGACUAUGUGCC [Hyena]	34.5	43.2	38	–	–
GGGACACCGAGAAGGAGCGCAUCCAAACCACACAUGAGGAUCACCCAUGUAUAAAUAUGCAUGCAGGUAGGUCGCUCGGCGUCUC [Orordionbi]	76.5	112	134	120	111
GGGAGGGAGGCGGCCGCCACUGAUUUUCAUAUAUAUAUAACAUGAGGAUCACCCAUGUGGAUAUACAGGACCGGGCCUUUUUUUU [aaaH]	17.6	30.1	19.1	–	–
GGGCGCUAUCCCGCGAGGGAUAGCGUUCGUCGAGGACCGGUACGGCCGCCACUCGAACGAGUGGUGACAUGAGGAUCACCCAUGU [Oaa]	39	55.2	55.7	–	–
GGGUACAUCACGGCCGCCACUCAUGUAAAUACAUGAGGAUCACCCAUGUCGAUGGAGACAUCGGAGAGGACCGGGUGAUGUACCG	187	394	620	–	–
GGGUAUGAUCCGGAUACCAGCGAACAUGAGGAUCACCCAUGUGACCUAAGAUAGGCUAAACGCCCUUGGCAGCCGAGAUUGCGUU [Same State Theophylline B GF7]	32.4	49.7	–	–	41
GGGUGGUAGGCGGCCGCCACUGAUUUUCAUUUAUAGAUGACAUGAGGAUCACCCAUGUUUAUGUGCAGGACCGGGCCUGUUGUGG [aaaS]	43.1	74.2	113	98.7	77.6
GGUACAUGAGGAUCACCCAUGUGUCAUGAUACCAGACAUGAAAAUGUCCCUUGGCAGCAUGCCUGAUGGCCGCGUUUAGCGGCCG [Liskovec]	15.8	19.5	20.7	15.7	16.2

Sequence	apparent KD of MS2 coat protein (input ligand: arginine 13.2 mM) [nM]	apparent KD of MS2 coat protein [1] [nM]	apparent KD of MS2 coat protein [2] [nM]	apparent KD of MS2 coat protein (input ligand: none) [nM]	apparent KD of MS2 coat protein [3] [nM]
GGUAGCAGGACUGAUACCAGUCCAGCGAAUCAUACGACGCAACAUGAGGAUCACCCAUGUGACCCUUGGCAGCAGUCUGCUACCG [Same State Theophylline B GF 29]	28.9	23	–	–	25.7
GGUCACCUAUCCUCAUUGGUGACCCUGGAAGGAGCGAGCGAGAGCUCAGGUAGGUCGCCAGAACAUGAGGAUCACCCAUGUAAUA [(A)''-(M)'-(A)'(Arg1)-(Arg2)-(M1)-(M2)_Design12]	43.4	120	111	94.9	70.1
GGUCUCGCGGGCGAUACCAGCUUGAUCGUACUGGCCUGGUACAUGAGGAUCACCCAUGUAAGCCCUUGGCAGCGCGCGCGAGACC [#1 Exclusion - Theophylline B Attempt #5 (HarryS)]	10.4	16.4	32.1	10.6	11.9
GGUCUCUGGAGCGAUACCAGCUUGAUCGUACUAGCCAGGUACAUGAGGAUCACCCAUGUAAGCCCUUGGCAGCGCUCCAGAGACC [#1 Exclusion - Theophylline B Attempt #9 (HarryS)]	8.2	14.6	22.3	9.25	10.5
GGUGGGACUUGUGAUACCAGCCCAAUUCGAAUCGAAUUGCACAUGAGGAUCACCCAUGUCGGCCCUUGGCAGCAUGAGUAUUUAU [Ricerixe]	152	149	–	–	313
GGUGUUACGUCGGCCGCCACUAUACUACAUGAGGAUCACCCAUGUCAUCCCUUCAAUUGGUAGCCUAGGACCGGGACAGAAUUCG [theeternabot_exclusion_MS2_Trp_B_8]	33.2	55.2	43.8	–	–
GGUUACUCUACGGCCGCCACUGAACAUGAGGAUCACCCAUGUAAUGUUCAGUAGUCUUUAGACAACAGGACCGGGUAGUGUAACC [Tryptophan B 6]	109	236	271	–	–
GGUUACUCUACGGCCGCCACUGUAAUGUAAAGAUUCCUGUACAUGACAUGAGGAUCACCCAUGUGCAGGACCGGGUAGUGUAACC [Tryptophan B 20]	126	208	225	–	–
GGUUACUCUACGGCCGCCACUGUUAAAUAAUAAACCUGUACAUAAACAUGAGGAUCACCCAUGUACAGGACCGGGUAGUGUAACC [Tryptophan B 8]	27.6	41	35	–	–
GGUUGAUGGUCGGCCGCCACUGUUGGUGCCAUGAGUUAAGUAUAGCACAUGAGGAUCACCCAUGUCAGGACCGGGACUCUACCCG [theeternabot_exclusion_MS2_Trp_B_16]	15.1	19.6	20.9	–	–
GGUUGGUCGCAGGAUACCAGUCCACCCGUGAUACUGCUAAACAUGAGGAUCACCCAUGUCGACCCUUGGCAGCCUGUCCAUGCGU [theeternabot_exclusion_MS2_Theo_B_45]	18.8	27.3	–	–	17.1
GUACAUGAGGAUCACCCAUGUAUAGUUGAAGGAGCGACCAGAGGGUCAGGUAGGUCGCAGCACAUGGUGAAAACCCGUGUAUGCC [#1 Exclusion - Arginine A Attempt #21 (Inspired by Pi)]	40.4	61.7	49.1	33.4	27.6
GUCCAAAGGUCGGCCGCCACUGUAGAGUGUGUUCUUUCACAUGAGGAUCACCCAUGUUGUUAUUAUAGGACCGGGAUUGUAGGAC [#21 Exclusion Tryptophan B]	17.2	31.1	23.4	–	–
GUCCACAUGAGGAUCACCCAUGUAAGUGGGCGAGGACCGGUACGGCCGCCACUCGACAUGUUGACGAAAAGUCAGCAUGAGGACA [#SwitchBubble 3 #GuTurnoff #Tail]	44.1	154	114	108	101
GUCCUCGUGUCCGGUUUAGCGCAAAGCGCACGAGGACCGGUACGGCCGCCACUCGAAACAUGAGGAUCACCCAUGUGAAGAAUAA [Design 1]	14.4	21.8	15.8	14.6	17.8
GUCUGUGUCUGAAGGAGCGACAUGAGGAUCACCCAUGUCUCCCGUUAUGGGAGUUCCUUAGGUCAGGUAGGUCGCAGACACAGAC [#1 Exclusion - Arginine B Attempt #27 (Inspired by Omei)]	110	164	187	123	107
GUGGCGAUCACGGCCGCCACUGAGCAGGUCGAGCUUGACAUGAGGAUCACCCAUGUCUGACGAUACAGGACCGGGUGAUCUCCGC [Titiinanon]	16.5	94.6	149	21.7	19.7
